Measurements published in article PMC3839853 (FEBS Open Bio, 2013).

Target: the molecule itself
Assay: crystal structure

B1: Recombinant wild-type Phanerochaete chrysosporium pyranose 2-oxidase (PcP2O_(RECWT)), full-length residues 1-621 with N-terminal T7-epitope tag and C-terminal … (enzyme, UniProt Q6QWR1 10-621, looked up)
chain: ADEPYDVFIAGSGPIGATFAKLCVDANLRVCMVEIGAADSFTSKPMKGDPNAPRSVQFGPGQVPIPGYHKKNEIEYQKDIDRFVNVIKGALSTCSIPTSNNHIATLDPSVVSNSLDKPFISLGKNPAQNPFVNLGAEAVTRGVGGMSTHWTCATPEFFAPADFNAPHRERPKLSTDAAEDARIWKDLYAQAKEIIGTSTTEFDHSIRHNLVLRKYNDIFQKENVIREFSPLPLACHRLTDPDYVEWHATDRILEELFTDPVKRGRFTLLTNHRCTKLVFKHYRPGEENEVDYALVEDLLPHMQNPGNPASVKKIYARSYVVACGAVATAQVLANSHIPPDDVVIPFPGGEKGSGGGERDATIPTPLMPMLGKYITEQPMTFCQVVLDSSLMEVVRNPPWPGLDWWKEKVARHVEAFPNDPIPIPFRDPEPQVTIKFTEEHPWHVQIHRDAFSYGAVAENMDTRVIVDYRFFGYTEPQEANELVFQQHYRDAYDMPQPTFKFTMSQDDRARARRMMDDMCNIALKIGGYLPGSEPQFMTPGLALHLAGTTRCGLDTQKTVGNTHCKVHNFNNLYVGGNGVIETGFAANPTLTSICYAIRASNDIIAKFGRHRG
Question: With B1 as the protein, how does the “stoichiometry N” value read?
Answer: Its value is 4.
